Laboratory results as given in PMC10868123.

Biological target: VPS13C, endogenous in HEK-293 cells [human (endogenous in HEK-293 FT/HEK-293 T)]
Test: co-IP (anti-GFP IP, immunoblot quantification)
Details: N = 4; parent: 1; read off a plot

ratio to parent	Substance
0.34	eGFP-Rab10 WT mutant T73A [not stated] / VPS13C, endogenous in HEK-293 cells [human (endogenous in HEK-293 FT/HEK-293 T)] chain 1 T73A
1.3	eGFP-Rab10 WT mutant T73E [not stated] / VPS13C, endogenous in HEK-293 cells [human (endogenous in HEK-293 FT/HEK-293 T)] chain 1 T73E
